These are literature values, as cited in PMC5776729.

Usually Kd stands for the equilibrium constant for the complex coming apart.

Data set [1] concerns the target laminin 411 (Homo sapiens) (UniProt Q16363).
Data set [2] has as its target laminin 511 (Homo sapiens) (UniProt O15230).
The target in data set [3] is laminin 111 (Mus musculus) (UniProt P19137).
In data set [4] the target is laminin 111 (Homo sapiens) (UniProt P25391).

Chain of UniProt Q16363 (Q16363 25-1823, chain 1 of 3): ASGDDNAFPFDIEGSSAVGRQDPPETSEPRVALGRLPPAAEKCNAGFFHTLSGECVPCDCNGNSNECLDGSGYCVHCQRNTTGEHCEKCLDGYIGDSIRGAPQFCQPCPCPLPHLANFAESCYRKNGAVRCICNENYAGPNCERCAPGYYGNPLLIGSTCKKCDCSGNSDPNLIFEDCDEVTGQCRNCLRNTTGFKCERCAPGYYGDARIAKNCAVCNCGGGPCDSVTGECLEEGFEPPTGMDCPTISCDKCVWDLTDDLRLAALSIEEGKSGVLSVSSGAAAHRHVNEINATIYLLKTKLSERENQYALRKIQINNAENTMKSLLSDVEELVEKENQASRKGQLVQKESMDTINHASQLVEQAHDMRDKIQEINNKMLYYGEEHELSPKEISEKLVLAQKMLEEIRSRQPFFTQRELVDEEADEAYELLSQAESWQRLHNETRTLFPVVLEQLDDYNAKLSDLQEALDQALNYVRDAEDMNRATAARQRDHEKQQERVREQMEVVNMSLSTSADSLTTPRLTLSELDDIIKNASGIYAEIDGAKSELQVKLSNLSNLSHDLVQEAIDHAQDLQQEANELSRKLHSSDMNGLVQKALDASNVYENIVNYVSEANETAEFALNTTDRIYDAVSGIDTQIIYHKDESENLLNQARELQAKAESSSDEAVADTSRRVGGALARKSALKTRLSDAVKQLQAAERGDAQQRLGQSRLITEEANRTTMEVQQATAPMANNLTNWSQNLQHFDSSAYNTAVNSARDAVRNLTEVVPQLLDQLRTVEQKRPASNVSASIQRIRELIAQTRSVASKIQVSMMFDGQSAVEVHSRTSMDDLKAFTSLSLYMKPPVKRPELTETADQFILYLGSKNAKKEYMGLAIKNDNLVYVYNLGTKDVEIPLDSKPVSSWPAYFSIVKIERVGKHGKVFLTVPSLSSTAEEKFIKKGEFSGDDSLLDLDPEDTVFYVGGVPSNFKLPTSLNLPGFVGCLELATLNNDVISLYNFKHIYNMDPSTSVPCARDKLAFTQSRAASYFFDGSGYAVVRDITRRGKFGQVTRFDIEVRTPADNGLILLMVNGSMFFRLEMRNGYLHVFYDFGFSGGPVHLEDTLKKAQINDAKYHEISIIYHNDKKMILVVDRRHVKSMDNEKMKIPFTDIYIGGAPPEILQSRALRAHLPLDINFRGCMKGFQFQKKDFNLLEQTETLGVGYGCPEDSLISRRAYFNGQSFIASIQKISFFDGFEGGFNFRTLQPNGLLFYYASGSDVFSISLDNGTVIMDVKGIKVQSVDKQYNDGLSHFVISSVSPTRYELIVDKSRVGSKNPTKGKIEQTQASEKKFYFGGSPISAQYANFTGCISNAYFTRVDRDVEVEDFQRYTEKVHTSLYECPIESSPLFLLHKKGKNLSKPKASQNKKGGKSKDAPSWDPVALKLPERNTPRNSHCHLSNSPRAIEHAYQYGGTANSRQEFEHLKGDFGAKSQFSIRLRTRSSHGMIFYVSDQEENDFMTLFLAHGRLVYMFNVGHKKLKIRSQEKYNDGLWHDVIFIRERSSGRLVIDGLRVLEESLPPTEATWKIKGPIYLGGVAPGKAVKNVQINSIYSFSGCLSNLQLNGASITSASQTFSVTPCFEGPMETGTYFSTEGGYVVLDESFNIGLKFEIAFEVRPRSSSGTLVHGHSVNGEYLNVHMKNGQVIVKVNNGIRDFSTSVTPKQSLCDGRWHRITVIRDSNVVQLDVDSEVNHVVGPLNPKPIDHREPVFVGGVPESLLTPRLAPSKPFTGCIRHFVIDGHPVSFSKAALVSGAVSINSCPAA
Chain of UniProt Q16363 (P07942 22-1786, chain 2 of 3, further chain): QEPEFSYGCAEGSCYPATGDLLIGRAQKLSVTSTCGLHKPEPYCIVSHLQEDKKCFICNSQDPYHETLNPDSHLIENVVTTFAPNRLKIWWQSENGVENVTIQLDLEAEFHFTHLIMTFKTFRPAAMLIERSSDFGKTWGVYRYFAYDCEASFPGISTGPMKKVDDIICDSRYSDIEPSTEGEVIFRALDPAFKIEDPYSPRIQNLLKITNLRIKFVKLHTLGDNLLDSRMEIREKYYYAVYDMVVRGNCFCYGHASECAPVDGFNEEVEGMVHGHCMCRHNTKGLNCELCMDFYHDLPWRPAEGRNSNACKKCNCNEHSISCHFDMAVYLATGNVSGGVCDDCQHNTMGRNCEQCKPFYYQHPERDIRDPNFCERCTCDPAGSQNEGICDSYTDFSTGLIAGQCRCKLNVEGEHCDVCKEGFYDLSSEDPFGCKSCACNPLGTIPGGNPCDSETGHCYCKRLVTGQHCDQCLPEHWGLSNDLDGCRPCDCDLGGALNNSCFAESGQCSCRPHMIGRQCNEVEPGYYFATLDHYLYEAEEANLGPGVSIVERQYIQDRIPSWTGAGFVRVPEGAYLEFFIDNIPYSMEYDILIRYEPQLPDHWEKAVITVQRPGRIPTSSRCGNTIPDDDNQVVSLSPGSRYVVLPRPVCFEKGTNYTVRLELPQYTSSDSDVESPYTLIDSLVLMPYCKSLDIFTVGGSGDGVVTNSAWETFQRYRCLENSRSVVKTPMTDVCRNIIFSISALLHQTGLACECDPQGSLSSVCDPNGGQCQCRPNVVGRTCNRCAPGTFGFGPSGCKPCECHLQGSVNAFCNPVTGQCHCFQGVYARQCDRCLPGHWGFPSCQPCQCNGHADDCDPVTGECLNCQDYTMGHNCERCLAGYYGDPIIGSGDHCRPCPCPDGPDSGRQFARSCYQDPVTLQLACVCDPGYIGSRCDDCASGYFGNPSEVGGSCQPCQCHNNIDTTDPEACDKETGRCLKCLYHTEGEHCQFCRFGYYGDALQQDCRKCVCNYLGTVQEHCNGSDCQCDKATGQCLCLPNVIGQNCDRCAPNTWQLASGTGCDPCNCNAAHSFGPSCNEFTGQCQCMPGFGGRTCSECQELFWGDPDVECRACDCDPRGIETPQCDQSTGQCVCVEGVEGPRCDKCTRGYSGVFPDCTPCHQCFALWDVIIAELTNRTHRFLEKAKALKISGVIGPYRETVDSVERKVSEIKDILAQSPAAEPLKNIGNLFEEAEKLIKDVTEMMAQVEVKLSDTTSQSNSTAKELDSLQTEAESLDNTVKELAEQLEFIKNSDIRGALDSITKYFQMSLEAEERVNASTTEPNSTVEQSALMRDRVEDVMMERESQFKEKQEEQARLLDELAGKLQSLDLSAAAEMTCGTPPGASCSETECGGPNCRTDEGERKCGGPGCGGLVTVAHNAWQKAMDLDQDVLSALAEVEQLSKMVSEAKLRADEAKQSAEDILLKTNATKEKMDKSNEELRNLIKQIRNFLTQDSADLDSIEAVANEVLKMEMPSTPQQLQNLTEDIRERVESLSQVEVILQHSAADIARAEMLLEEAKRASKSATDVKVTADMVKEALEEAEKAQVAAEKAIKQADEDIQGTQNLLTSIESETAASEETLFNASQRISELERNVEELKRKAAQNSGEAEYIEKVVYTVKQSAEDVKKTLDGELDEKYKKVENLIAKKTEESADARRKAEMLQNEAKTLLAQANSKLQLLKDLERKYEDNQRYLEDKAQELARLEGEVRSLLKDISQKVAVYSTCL
Chain of UniProt Q16363 (P11047 34-1609, chain 3 of 3, further chain): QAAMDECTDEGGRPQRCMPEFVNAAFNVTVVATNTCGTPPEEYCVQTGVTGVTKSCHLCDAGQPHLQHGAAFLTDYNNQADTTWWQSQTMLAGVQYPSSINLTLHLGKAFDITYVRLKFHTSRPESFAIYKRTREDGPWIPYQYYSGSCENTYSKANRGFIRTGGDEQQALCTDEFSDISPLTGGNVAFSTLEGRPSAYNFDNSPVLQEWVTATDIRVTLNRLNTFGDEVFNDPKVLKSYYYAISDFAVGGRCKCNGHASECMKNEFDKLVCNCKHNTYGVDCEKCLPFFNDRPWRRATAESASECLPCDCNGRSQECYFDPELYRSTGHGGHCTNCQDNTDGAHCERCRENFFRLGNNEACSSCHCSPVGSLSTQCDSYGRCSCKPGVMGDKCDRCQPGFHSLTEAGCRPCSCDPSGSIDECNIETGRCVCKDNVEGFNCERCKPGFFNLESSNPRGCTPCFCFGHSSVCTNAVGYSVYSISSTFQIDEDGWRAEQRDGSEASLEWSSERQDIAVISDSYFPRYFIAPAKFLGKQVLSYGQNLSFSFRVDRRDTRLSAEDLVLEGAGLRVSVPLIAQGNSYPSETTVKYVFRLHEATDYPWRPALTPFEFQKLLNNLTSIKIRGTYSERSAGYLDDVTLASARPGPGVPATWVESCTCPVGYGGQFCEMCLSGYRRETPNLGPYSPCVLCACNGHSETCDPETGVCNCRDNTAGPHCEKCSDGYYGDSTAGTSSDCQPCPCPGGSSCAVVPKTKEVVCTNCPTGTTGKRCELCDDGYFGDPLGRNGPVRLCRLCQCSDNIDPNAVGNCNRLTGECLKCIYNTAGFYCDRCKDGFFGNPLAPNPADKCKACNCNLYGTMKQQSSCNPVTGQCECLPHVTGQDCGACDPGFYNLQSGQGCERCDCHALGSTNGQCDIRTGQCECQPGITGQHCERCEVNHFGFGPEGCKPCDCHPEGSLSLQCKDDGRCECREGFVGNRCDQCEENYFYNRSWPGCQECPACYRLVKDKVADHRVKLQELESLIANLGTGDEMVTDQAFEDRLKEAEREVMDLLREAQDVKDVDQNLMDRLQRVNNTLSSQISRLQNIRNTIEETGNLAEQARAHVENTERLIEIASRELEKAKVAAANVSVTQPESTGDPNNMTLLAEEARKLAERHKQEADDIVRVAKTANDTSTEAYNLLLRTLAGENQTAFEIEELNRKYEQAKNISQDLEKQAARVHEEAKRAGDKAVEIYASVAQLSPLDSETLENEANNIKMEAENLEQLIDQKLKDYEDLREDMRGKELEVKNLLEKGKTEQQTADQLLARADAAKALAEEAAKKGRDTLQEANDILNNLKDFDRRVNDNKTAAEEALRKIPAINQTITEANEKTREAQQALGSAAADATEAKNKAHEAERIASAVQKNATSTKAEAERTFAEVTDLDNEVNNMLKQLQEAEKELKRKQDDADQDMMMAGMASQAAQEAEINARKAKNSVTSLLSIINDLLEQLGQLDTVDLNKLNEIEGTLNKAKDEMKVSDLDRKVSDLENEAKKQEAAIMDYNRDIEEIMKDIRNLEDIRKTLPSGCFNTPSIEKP

In the case of Factor XI (from UniProt P03951), the Kd in data set [1] was 9.2 nM; in data set [2], 8.3 nM; in data set [3] it was 18.8 nM; in data set [4], 11.1 nM.
